Target: recombinant GST-S6 (UniProt P62753)

**Q.** How did the “in vitro kinase assay (phospho-S6 S240-244 blot)” value turn out when T7-tagged mouse S6K1 Isoform-2 (Iso-2) was run?
**A.** have no kinase activity

Source: patent US20150141489
